{
  "source": "patent US20120015890A1",
  "about": "(ARGOS THERAPEUTICS, published 2012)",
  "key": {"[1]": {"biological_target": "the molecule itself", "assay": "SDS-PAGE with and without 2-mercaptoethanol; band at about 25 kDa without reducing agent", "procedure": "The HPLC-purified recombinant human CD83ext protein (cloning and expression as described in example 1, purification as described in example 2 was analysed with the Laemmli SDS-PAGE system. To identify possible oligomeric forms of CD83 2-mercaptoethanol (ME) has been omitted from the sample buffer (2% SDS, 5% 2-Mercaptoethanol (ME), 10% Glycerol, 0.2 mM EDTA, 0.005% bromphenolblue, 62.5 mM Tris pH6.8). In the absence of this reducing agent, the intra- and interchain disulfide bonds of CD83 remain intact. The reduced and non-reduced protein samples were both incubated for 5 min at 95° C. and compared with each other by SDS-PAGE (see FIG. 7). During electrophoresis, the mobilities of oligomeric SDS-proteins is lower than those of their fully denatured SDS-polypeptide components. Without ME an upper band appears at the estimated size of a CD83-dimer (about 25 kDa), while the monomeric CD83 band (about 14 kDa) is fainting. Westernblot analysis using the anti-CD83 antibody CD83-1G11 (Lechmann et al., Protein Expression and Purification 24:445-452 (Mar. 2, 2002)) confirmed the specificity of the protein bands. Thus, hCD83ext is a disulfide-linked homodimeric protein."}, "[2]": {"biological_target": "the molecule itself", "assay": "SDS-PAGE with and without 2-mercaptoethanol", "from_the_text": "The purified hCD83ext_mut129_Cys to Ser was compared to purified hCD83ext by SDS-PAGE (see FIG. 9). […] Under non-reducing conditions no CD83-dimer could be detected with the mutant CD83 protein. So the 5th carboxyterminal cysteine of the extracellular CD83 domain is necessary for the creation of homodimers. Westernblot analysis confirmed specificity of the bands (data not shown)."}},
  "data": [
    {"protein": "recombinant human CD83ext protein (soluble extracellular domain of human CD83) (receptor, Expressed in E. coli as a GST fusion and cleaved with thrombin; also called hCD83ext; soluble CD83) GSPGTPEVKVACSEDVDLPCTAPWDPQVPYTVSWVKLLEGGEERMETPQEDHLRGQHYHQKGQNGSFDAPNERPYSLKIRNTTSCNSGTYRCTLQDPDGQRNLSGKVILRVTGCPAQRKEETFKKYRAEI", "values": [
      {"measurement": "binding result", "setting": "[1]", "value": "binds"}
    ]},
    {"protein": "hCD83ext_mut129_Cys to Ser (receptor, Expressed in E. coli as a GST fusion and cleaved with thrombin; Monomeric; also called hCD83ext mut129 Cys to Ser mutant) GSPGTPEVKVACSEDVDLPCTAPWDPQVPYTVSWVKLLEGGEERMETPQEDHLRGQHYHQKGQNGSFDAPNERPYSLKIRNTTSCNSGTYRCTLQDPDGQRNLSGKVILRVTGSPAQRKEETFKKYRAEI", "values": [
      {"measurement": "binding result", "setting": "[2]", "value": "no binding"}
    ]}
  ]
}
